Reference: publication PMC10323135

Target: Norovirus-like particle displaying C-terminal SpyTag (norovirus VP1 capsid protein fused with a C-terminal SpyTag) (norovirus strain Hu/GII.4/Sydney/NSW0514/2012/AU)
Experiment: SDS-PAGE mobility shift of the covalent SpyTag/SpyCatcher conjugate

SpyCatcher-M2e (SpyCatcher fused with the ectodomain of influenza matrix-2 protein) (designed binder)
conjugation efficiency: 24%
